# Experiment: soluble on expression in E. coli; label from the status in PepcDB or PDB records
row,Sequence,soluble on expression in E. coli
1,SLDGELDTQPLIEQLWQAGKRVYLPVLHPFSPGNLLFLHYHPQSALVTNRLNIREPRLDVRDVLPLAKLDVLVTPLVAFDEGGQRLGMGGGFYDRTLQNWQQHKILPVGYAHDCQLVEKLPVEEWDIPLPAVVTPSKIWEW,soluble
2,SLDRLYAKAMKSKYTKLLLENFLLSPYEMTDPAIMAGLQKNVYPKYDELKTLRGLEGVKKHLSYVREKQEPYSKGNIAKYLKKAIEQYLPTVKRQDID,soluble
3,SLDSKTTVNINIPSGSSVSAIASILKKNDVIKSEKAFQYYVKYKGASGFQAGFYHLNKGMDLDAIIQKLTSGATGYAFQITVTEGAQLTQIAAAIADETKYSKKQVIAKLDDETFINQLKKEFPDTVTNDVFNKNIKHPLEGYLFPATYPFNDPDTSLEDIIKAMIKQTNSYVETYKSEMKKNKVSVHKLLTMASLIEEEATEKADRHKIASVFYNRLKKKMPLQTDPTVLYAAGKHKDRVLYKDLEIDSPYNTYKNTGLTPGPIANAGMSSWEAALHPDKTDYLYFLAKSNGEVVFTKTLKEHNKAKEKYISSKNEK,soluble
4,SLEGWGRGLAMFYIRRVETPEGLVMVLVTDEDVMERAVYDEERGVRIIVSRSFYGGSLGTEADAIKTIEKADIIVLTGEKSVSIGVRMGLVNPDSVLEVKGIKQVQVFKFSY,soluble
5,SLEKKDTNSLKLLLIGNTGIGEYKSRAERKGLWYKLKRFLWTNEFDQTVSALAKWHAEEKADAVLGLGDFLGIPGPLSARDERFTKRWYDIFVKDAKLDIPWLMTLGEEEALVNPSASVRHHYTGEHPNWYMPNDAYTATFSFSTSMTMANGTIQHEAFNATVINVNTWNLFVGNPIANNMQSMMDRLMWLSDQLYTAVNQTTNWLIIMGHLPLVSTGPQGEQGRLQYVDDLYKNGQPRGPEAVLIQMLLSHYQVDLYVSAHDHFMEYVALEDLSKNTTTAFITSGAAVRLLDKDVGRGWIGRLRGALYPILCWSGRRILYAFHPG,soluble
6,SLFFFASQIVREENKLLDLLFNLFKDFNSFKLEVKRRDKNFAENSSNFKKYLAVKLFEKYQLKGVINNPEIIANIEILKEHFLVFTER,not soluble
7,SLGALGVIAFRRGYYYYVGSANSGVHRVKRHFSIKKKKRWHIDYISAKMEVVGAILSKEPECGLAQRFESFERIRGFGCSDCDCESHLFYSPTLNLEFLST,soluble
8,SLGRQVYNFNPGWRFFKGDIRGAEAVNFDDRSWEVVSTPHTVELMPAEGSGCRNYQGPAWYRKHFVVPTATKGQRVLLHFEAAMGKQVLYLNGKRVQEHLGGYLPFTLDLTANGVQAGDSCLLAVYTDNSNDKSYPPGKPQYTLDFAYHGGIYRDVWMIAKSPVAITDAIDSRTVGGGGVFVHFDKISEKSAQVYVETEIQNDNTRSESVTIETTLTDAEGNVIKRTSGKLSLNSGEKKSIRQQMEVRNPKLWSPDAPYLYRVQSRIKKGNRSIDGGTTRIGIRLAEFRGKEGFWLNGKPFGQLVGANRHQDFAYVGNALPNSQQWRDAKRLRDAGCTIIRVAHYPQDPSFMDACDELGLFVIVATPGWQYWNKDPKFGELVHQNTREMIRRDRNHPSVLMWEPILNETRYPLDFALKALEITKEEYPYPGRPIAAADVHSAGVKEHYDVVYGWPGDDEKEDKPEQCIFTREFGENVDDWYAHNNNNRASRSWGERPLLIQALSLAKSYDEMYRTTGQFIGGTQWHPFDHQRGYHPDPYWGGIYDAFRQKKYAYEMFRSQSPASLQHPLAECGPMIFLAHEMSQFSDKDVVVFSNCDSIRLSIYDGTKTWTKPVVHAKGHMPNAPVIFENVWDFWEARGYSYTQKNWQKVNMVAEGIIDGKVVCTQKKMPSRRSTKLRLYADTQKVNLVADGSDFIVVVAEVTDDSGNVRRLAKENIVFTVEGEGEIIGDARIGANPRAVEFGSAPLLIRSTRKAGKIKVKAHVQFEGTQAPTAAEMEFESVPAELPFCYDEKEG,not soluble
9,SLGSDADSAGSLIQPMQIPGIIMPGLRRLTIRDLLAQGRTSSNALEYVREEVFTNNADVVAEKALKPESDITFSKQTANVKTIAHWVQASRQVMDDAPMLQSYINNRLMYGLALKEEGQLLNGDGTGDNLEGLNKVATAYDTSLNATGDTRADIIAHAIYQVTESEFSASGIVLNPRDWHNIALLKDNEGRYIFGGPQAFTSNIMWGLPVVPTKAQAAGTFTVGGFDMASQVWDRMDATVEVSREDRDNFVKNMLTILCEERLALAHYRPTAIIKGTFSSGS,soluble
10,SLIDNPHAQDCWPNQGHMDVQGLTVKYTEAGRSVLQDLSFTVEGGQSVGVLGRTGSGKSTLLSALLRLASTDGEISIDGVSWNSVTLETWRKAFGVVPQKIFILTGTFRMNLDPHARYSDEELWRVAEEVGLKSVIEQFPDKLDFQLEDGGYVLSNGHKQLMCLARSILSKARILLLDEPSAFLDPITLQVLRKTLKQSFSNCTVILSEHRVEPLLECDSFLMIEGSSMKRYDSIQKLLNETSDLKQAMSAAE,soluble
11,SLIENVDAQADSSWPHRGQIEVRNLTVKYTEAGHAVLKNLSFSAEGRQRVGILGRTGSGKSSLFNALLKLVYTDGEISIDGVNWNKMPLEKWRKAFGVVPQKVFIFTGPLRMNLDPYGCHSDEELWRVAEEVGLKTVIEQFPDKLDFQLEYGGYVLSNGHKQLICLARSILSGARILLLDEPSAHLDPVTIKVLKKTLRQSFSTCTILLSEHKVEPLLECDSFLMMDKGQVKTYDSIQKLLNETSDLKQAISPAE,not soluble
12,SLKEFELKGINHLALVCRDFQETIDFYTITLGLKLIKNIDLPSGGKHFFIDIGNNNTLAFFWSTKAPESVPGISSVRPEAFLTGDIITAHGSMNHVAFHVPLEKLEEYKEKLVSKGVQTTPVLHHTDVPMSSFYFFDPNGILLEFAANLQSLDTLPAELKEKEAIFLKEG,soluble
13,SLKNRRVGKKLLMTGGGRCNVTNNRPAEEIISFIPGNGKFLYSAFSQFDNYDIMNFFESNGIHLKEEDHGRMFPVTDKSKSIVDALFNRINELGVTVFTKTQVTKLLRKDDQIIGVETELEKIYAPCVVLTTGGRTYPSTGATGDGYKLAKKMGHTISPLYPTESPIISEEPFILDKTLQGLSLQDVNLTVLNQKGKPLVNHQMDMLFTHFGISGPAALRCSSFINQELTRNGNQPVTVALDVFPTKSFEEVPAKQLTEKQRLSFVELLKDFQFTVTKTLPLEKSFVTGGGISLKEVTPKTMESKLVNGLFFAGELLDINGYTGGYNVTAAFVTGHVAGSHAAEIAEYTYLPIEEV,soluble
14,SLKSFPHGEKAPFPLTLIHINDLHARFDETNQKSSTCTNSKECIAGIARVYHTIKQLKSEYKTKNPLYLNAGDNFQGTLWYNLLRWNVTAYFIKELPPDAMTLGNHEFDHSPKGLAPYLAELEKMKIPTVVANLEKNGEPALKDSKIAPQIVLKVGNRKVGVIGALYDKTHLVAQTGMVTLTNSIEAVRKEAQELKKKNVNIIVVLSHCGLDGDKQLAEEAGDLIDVIVGAHSHSLLLNKDAKVPYDTKYDTIEGDYPLVVKKSNNHTVLITQARSFGKYVGRLTVNFDCEGEVQSWEGYPIYMNNSVKQDEEVLRELEPWRAEVKRLGTQVIGTTEVFLDRESCRWCECTLGDLIADAYADQYTNSTVQPVAFVQAGNFRNPIEKGDITNGLAIEAAPYGSSVDMIKLSGADLWSAIDHSFTLDDEFRYNTAQVSGMTVVADLSKKPYERVQSIDIVGANGAKTALKKDQIYYVAVPSYLADGKDGFAMLKKGTNRVTGPLDSDVLIEYVRKRQTIAKTMFQEKRVVIENHTNGTCSWDLDSQRYKPK,not soluble
15,SLPHIITRKVISVEQNWLQQLANAISDPLQLLQQLEIDPSPWQDGFEARKLFAQRVPQSFVDRMQKGNPADPLLRQVLPLSAEFEIHPGYSHDPLDEQNNTVPGLLHKYKNRCLLIVKGGCAINCRYCFRRHFPYEDNKGGKSAWQQSLDYIAQNPQLNEVIFSGGDPLMAKDHEIAWLMERIAAIPHIKRLRIHSRLPVVIPARITDELVELFAQTRLQVLLVTHINHANEINLELKQQMARLRAVNVTLLNQGVLLKGVNDTVDAQVSLSETLFDAGILPYYLHVLDKVQGAAHFYVSDDKARQIMAGLIEQVSGYLVPKLTREIGGRPSKTPLDLHLE,not soluble
16,SLPVRESLQKQVKILIGLGNLGFGGYRGLYTRFTNPNGFLEPASSDLLLINERRNLSVIGAVSRTFSVPSVSGPAFQVCGYHIDLLLSDPCKSMASLGSKSLFVDRHSASLVSKRFTGGMVSGDGPNRGRISMRLRGKDHNEKSTICAYFAYRGAKRWIYLNQQRRGMGFRGLHSSLSNRLSAGNAPDVSLDNSVTDEQVRDSSDSVAAKLCTKPLKLVSGSCYLPHPDKEATGGEDAHFICAEEQALGVADGVGGWAELGIDAGYYSRELMSNSVNAIQDEPKGSIDPARVLEKAHTCTKSQGSSTACIIALTNQGLHAINLGDSGFMVVREGHTVFRSPVQQHDFNFTYQLESGRNGDLPSSGQVFTVAVAPGDVIIAGTDGLFDNLYNNEITAIVVHAVRTNIDPQVTAQKIAALARQRAQDKNRQTPFSTAAQDAGFRYYGGKLDDITVVVSYVAASKEEGKH,soluble
17,SLRAERLTSRVKALFSVLNYERARRPGLLGASVLGLDDIHRAWRTFVLRVRAQDPPPELYFVKVDVTGAYDTIPQDRLTEVIASIIKPQNTYCVRRYAVVQKAAHGHVRKAFKSHVSTLTDLQPYMRQFVAHLQETSPLRDAVVIEQSSSLNEASSGLFDVFLRFMCHHAVRIRGKSYVQCQGIPQGSILSTLLCSLCYGDMENKLFAGIRRDGLLLRLVDDFLLVTPHLTHAKTFLRTLVRGVPEYGCVVNLRKTVVNFPVEDEALGGTAFVQMPAHGLFPWCGLLLDTRTLEVQSDYSSYARTSIRASLTFNRGFKAGRNMRRKLFGVLRLKCHSLFLDLQVNSLQTVCTNIYKILLLQAYRFHACVLQLPFHQQVWKNPTFFLRVISDTASLCYSILKAKNAGMSLGAKGAAGPLPSEAVQWLCHQAFLLKLTRHRVTYVPLLGSLRTAQTQLSRKLPGTTLTALEAAANPALPSDFKTILDEG,not soluble
18,SLRQIRTVIQYQTVRYDILPLSPVSRNRLAQVKRKILVLDLDETLIHSHHDGVLRPTVRPGTPPDFILKVVIDKHPVRFFVHKRPHVDFFLEVVSQWYELVVFTASMEIYGSAVADKLDNSRSILKRRYYRQHCTLELGSYIKDLSVVHSDLSSIVILDNSPGAYRSHPDNAIPIKSWFSDPSDTALLNLLPMLDALRFTADVRSVLSRNLHQHRLW,soluble
19,SLSELMGKRVLIIDDNLTSQKILINQAQSWGMFTCAVDSGEKALEWLKRGITFDVAILDMNLPDMNGLELVREIRKQPNCTRLPLIMLSAITETEKTFQSSEEEFVAVLCKPVQRSQLYNVLMEIFSEIPRAPIRVTEG,soluble
20,SLSHGKGTDMLPEIAAAVGFLSSLLRTRGCVSEQRLKVFSGALQEALTEHYKHHWFPEKPSKGSGYRCIRINHKMDPIISRVASQIGLSQPQLHQLLPSELTLWVDPYEVSYRIGEDGSICVLYEEAPLAASCGEG,soluble
21,SLSHRTDGSLLFPLSLVHINDIHAHWEEIDTASVTCDPKRDGAAEQCLGGYARTVTIVRQLLQERPNPVYLNIGDNFQGTLWYNIHRWNATAFFLNLLPADAVTVGNHEFDDGIAGVVPFLEAIQSPVLLVNVDNSKEPSFSKFRPSMVLERAGRKIGLIGVILRTTYNMADTGALVFEDEAETVRLEADRLAAEGVDIVVVLSHCGLDVDHIIAANAGPNVDIIVGGHSHSFLYSGQNDKIPMTPASEYPTVVNQPDGHRVLIVQASAYTKLVGDIVLYFDDQGIVQHWEGNPIYLSNDIVPDAEVLEAIAPWKVAIDAVGERTIGATAVDLLKPPCNFGECVLGNLIADSMVEAFVPMAEEGSWTYASIAAIAVGRIRQSLVPGDISFKHLIEVLPFENKLVCLELRGFQLVGLLEHGAELSWDEHRFNAKNLMHVSGLRVVYNVTNPIGHRVLSVEALCQDCSMPSYAPVEMFKMYRVVTVSYLAEGGDGFEIFPRYGRNRVVAPMDDVQAFEEYVKPRSPVAPVLEERIQILN,not soluble
